The values that follow come from patent US20080025968A1 (YEDA RESEARCH AND DEVELOPMENT, published 2008).

For test [1], the target named is T1, myc-NIK (NIK N-terminally fused to the myc tag) (human, UniProt Q99558 1-947).
T1 construct: Expressed in HEK293T cells for co-immunoprecipitation, the reporter test and the kinase test; also called myc-tagged NIK; wild type NIK
The test can be described thus: western blot of the p55 TNF receptor complex from NIK-deficient Ramos cells replenished with NIK (FIG. 6d). On the procedure:
(§1) Transfections, immunoblotting and immunoprecipitations were performed as described in Example 2 and Example 3 of the Examples section. For immunoprecipitation of the CD70/CD27 ligand-receptor complexes from resting PBMC and Ramos cells, cell lysates were prepared as described for the kinase tests aforementioned and incubated for 4 hours at 4° C. with 25 μl of 50% M2-FLAG agarose beads per ml of lysate. The TNF-receptor complex was precipitated as described (Zhang et al., 2000). The signalosome from cell lysates was immunoprecipitated using a 1:1 mixture of two different antibodies against IKK1 (M-280 and H-744, Santa Cruz). Immunoprecipitation was allowed to continue for 2 hours at 4° C., using 10 μg of anti-IKKα antibodies adsorbed to 25 μl of 50% protein-A-Sepharose beads per ml of lysate.
In NIK− cells, recruitment to the p55 TNF receptor occurred just as effectively as in the wild type cells (FIG. 6c, right panel). In contrast, recruitment of the signalosome components to CD27 was completely abolished (FIGS. 6c, d, left panels). Introduction of the wild type NIK, but not of “kinase-dead” NIK, to the NIK− cells reintated the recruitment in response to CD70 (FIG. 6d, middle and right panels). […] This recruitment could be observed both in cells expressing the wild type enzyme and in those that expressed its “[…]” mutant (FIG. 6d). […]

For another test, the target named is T2, NF-κB2/p100, endogenous (human, UniProt Q00653 1-900).
T2 construct: mature
T2 sequence (looked up): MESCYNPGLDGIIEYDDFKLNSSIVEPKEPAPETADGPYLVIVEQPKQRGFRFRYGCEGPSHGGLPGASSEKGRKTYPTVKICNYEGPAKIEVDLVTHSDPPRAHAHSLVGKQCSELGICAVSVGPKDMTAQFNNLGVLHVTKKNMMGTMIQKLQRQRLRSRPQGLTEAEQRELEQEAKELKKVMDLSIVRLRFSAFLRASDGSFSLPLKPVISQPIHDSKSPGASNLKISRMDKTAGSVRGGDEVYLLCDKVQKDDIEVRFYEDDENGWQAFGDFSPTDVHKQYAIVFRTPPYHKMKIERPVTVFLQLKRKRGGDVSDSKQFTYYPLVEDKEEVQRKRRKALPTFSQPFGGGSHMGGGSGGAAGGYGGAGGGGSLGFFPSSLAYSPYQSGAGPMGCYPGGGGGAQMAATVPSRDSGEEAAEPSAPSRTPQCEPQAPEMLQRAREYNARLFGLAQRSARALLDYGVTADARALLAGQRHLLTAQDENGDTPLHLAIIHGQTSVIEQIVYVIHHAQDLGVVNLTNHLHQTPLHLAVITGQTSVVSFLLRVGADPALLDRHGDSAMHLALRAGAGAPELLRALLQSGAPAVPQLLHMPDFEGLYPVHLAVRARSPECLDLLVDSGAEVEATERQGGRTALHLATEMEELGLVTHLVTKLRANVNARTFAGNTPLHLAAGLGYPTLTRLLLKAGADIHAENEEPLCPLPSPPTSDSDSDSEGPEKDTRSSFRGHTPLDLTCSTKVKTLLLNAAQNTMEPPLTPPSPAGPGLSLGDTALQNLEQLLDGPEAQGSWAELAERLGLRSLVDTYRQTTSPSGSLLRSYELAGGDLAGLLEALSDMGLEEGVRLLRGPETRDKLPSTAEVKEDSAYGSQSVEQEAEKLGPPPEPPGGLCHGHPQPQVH
The test can be described thus: western blot of the p55 TNF receptor complex from Ramos cells (FIG. 6a). On the procedure:
as §1

The target in the next test is T3, p50, endogenous (human, UniProt P19838 1-433).
T3 construct: also called NF-κB1 processed form
T3 sequence (looked up): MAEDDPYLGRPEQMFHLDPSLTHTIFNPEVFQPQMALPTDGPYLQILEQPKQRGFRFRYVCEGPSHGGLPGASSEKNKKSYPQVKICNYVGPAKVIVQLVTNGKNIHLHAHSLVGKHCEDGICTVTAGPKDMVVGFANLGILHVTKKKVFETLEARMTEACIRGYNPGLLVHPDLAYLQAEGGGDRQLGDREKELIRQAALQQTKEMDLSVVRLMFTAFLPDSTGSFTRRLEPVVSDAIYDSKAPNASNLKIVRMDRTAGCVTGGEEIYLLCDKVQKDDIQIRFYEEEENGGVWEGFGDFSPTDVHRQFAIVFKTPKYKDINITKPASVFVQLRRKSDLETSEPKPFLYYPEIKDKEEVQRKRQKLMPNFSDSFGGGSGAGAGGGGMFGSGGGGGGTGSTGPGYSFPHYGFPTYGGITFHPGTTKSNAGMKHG
The description is as above. The protocol: as §1

In another test the target is T4, p65, endogenous (human, UniProt Q04206 1-551).
T4 construct: mature; also called RelA
The description is as above. On the procedure: as §1

The target of another test is T5, IKK1, endogenous (human, UniProt O15111 1-745).
T5 construct: mature; also called IKKα
T5 sequence (looked up): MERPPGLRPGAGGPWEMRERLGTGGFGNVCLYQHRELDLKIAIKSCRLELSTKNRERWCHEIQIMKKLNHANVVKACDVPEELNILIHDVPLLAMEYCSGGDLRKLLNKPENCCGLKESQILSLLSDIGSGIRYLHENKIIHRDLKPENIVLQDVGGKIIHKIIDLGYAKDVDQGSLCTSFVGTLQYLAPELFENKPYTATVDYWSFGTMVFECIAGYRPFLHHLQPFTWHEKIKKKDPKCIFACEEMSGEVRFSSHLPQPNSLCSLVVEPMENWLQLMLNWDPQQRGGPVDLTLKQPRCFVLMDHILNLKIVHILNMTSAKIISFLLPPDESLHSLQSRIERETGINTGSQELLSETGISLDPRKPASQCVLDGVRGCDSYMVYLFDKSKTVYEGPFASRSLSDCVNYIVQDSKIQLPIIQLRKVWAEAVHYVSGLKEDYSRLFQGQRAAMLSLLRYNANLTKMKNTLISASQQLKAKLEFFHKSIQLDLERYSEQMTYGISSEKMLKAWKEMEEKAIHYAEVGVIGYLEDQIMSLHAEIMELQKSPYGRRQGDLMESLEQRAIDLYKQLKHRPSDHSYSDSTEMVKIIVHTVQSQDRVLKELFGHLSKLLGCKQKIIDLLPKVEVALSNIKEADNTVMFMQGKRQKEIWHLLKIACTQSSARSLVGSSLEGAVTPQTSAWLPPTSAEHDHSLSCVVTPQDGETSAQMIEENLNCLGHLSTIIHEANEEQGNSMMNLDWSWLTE
The test can be described thus: western blot of the p55 TNF receptor complex from Ramos cells after TNF (FIG. 5c).

T4 sequence (Q04206 whole entry): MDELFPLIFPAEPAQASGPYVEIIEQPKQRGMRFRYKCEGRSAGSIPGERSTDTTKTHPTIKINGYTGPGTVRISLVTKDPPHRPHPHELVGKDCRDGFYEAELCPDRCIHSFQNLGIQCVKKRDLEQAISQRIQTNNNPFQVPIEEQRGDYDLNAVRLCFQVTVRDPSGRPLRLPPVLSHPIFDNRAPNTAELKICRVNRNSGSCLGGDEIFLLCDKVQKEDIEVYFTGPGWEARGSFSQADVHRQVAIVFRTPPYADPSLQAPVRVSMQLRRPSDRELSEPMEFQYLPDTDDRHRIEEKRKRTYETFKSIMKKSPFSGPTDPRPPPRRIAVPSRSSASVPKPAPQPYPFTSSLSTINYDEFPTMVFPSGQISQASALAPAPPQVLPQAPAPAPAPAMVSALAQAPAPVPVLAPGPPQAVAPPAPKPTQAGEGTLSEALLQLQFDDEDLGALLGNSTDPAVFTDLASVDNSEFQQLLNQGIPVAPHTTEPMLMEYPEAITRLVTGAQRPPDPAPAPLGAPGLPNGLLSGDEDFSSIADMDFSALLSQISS
T1 sequence (Q99558 other isoform, or with tags, fused parts or gaps): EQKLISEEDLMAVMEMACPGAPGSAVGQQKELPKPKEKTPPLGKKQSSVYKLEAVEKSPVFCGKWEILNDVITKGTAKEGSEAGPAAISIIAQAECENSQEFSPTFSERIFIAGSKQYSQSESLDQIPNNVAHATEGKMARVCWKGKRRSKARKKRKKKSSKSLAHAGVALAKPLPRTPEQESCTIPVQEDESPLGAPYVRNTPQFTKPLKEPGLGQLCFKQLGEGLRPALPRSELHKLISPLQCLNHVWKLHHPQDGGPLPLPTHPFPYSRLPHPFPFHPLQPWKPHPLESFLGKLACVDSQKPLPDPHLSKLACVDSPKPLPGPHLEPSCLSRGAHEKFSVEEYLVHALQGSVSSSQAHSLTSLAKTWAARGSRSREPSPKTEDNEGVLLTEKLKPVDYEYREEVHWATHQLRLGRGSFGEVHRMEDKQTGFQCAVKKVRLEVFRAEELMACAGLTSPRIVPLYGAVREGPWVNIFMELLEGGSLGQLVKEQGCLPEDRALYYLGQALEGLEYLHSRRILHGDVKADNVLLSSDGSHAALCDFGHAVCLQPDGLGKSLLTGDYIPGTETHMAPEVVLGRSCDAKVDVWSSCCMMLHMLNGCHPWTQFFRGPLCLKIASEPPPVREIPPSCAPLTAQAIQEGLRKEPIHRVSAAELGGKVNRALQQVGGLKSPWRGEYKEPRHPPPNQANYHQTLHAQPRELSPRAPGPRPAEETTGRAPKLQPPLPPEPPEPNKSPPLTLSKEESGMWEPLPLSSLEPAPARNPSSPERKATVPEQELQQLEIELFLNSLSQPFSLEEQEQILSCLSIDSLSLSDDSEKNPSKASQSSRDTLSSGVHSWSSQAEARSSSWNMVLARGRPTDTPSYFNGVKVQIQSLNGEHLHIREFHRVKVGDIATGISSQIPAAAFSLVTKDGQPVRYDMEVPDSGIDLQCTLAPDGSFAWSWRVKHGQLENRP

B1: p55 TNF receptor, endogenous in Ramos cells (receptor, human, UniProt P19438 30-455, looked up)
chain: LVPHLGDREKRDSVCPQGKYIHPQNNSICCTKCHKGTYLYNDCPGPGQDTDCRECESGSFTASENHLRHCLSCSKCRKEMGQVEISSCTVDRDTVCGCRKNQYRHYWSENLFQCFNCSLCLNGTVHLSCQEKQNTVCTCHAGFFLRENECVSCSNCKKSLECTKLCLPQIENVKGTEDSGTTVLLPLVIFFGLCLLSLLFIGLMYRYQRWKSKLYSIVCGKSTPEKEGELEGTTTKPLAPNPSFSPTPGFTPTLGFSPVPSSTFTSSSTYTPGDCPNFAAPRREVAPPYQGADPILATALASDPIPNPLQKWEDSAHKPQSLDTDDPATLYAVVENVPPLRWKEFVRRLGLSDHEIDRLELQNGRCLREAQYSMLATWRRRTPRREATLELLGRVLRDMDLLGCLEDIEEALCGPAALPPAPSLLR
notes: whole, on cells; TNF-receptor complex precipitated as described by Zhang et al., 2000
In the case of B1, the binding result in test [1] is “no binding”; with NF-κB2/p100, endogenous, “binds”; with p50, endogenous, “binds”; in the test with p65, endogenous it was “binds”; in the test with IKK1, endogenous, “binds”.
